*1 amine or outer side, *2 acyl side, *3 side chain or, on linkers, in order; H or OH if unused. Where no end group is shown, it is not given here. Suc = O=C(CCC(=O)[*:2])[*:1]
Assays:
[1] = target: T1, ETB receptors (Homo sapiens, UniProt P24530)
T1 sequence (P24530 27-442): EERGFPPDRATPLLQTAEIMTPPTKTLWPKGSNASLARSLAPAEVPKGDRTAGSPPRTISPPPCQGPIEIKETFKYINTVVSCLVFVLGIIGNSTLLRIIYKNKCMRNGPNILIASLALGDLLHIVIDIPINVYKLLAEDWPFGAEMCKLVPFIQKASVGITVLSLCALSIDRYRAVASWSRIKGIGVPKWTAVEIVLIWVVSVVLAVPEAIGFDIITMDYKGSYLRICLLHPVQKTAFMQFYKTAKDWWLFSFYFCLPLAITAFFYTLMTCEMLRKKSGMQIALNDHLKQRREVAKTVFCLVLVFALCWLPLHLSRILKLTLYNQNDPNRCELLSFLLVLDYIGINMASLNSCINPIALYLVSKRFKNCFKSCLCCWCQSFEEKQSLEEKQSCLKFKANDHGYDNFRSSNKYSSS

[2] = target: T2, ETA receptors (Homo sapiens, UniProt P25101); details: cited from earlier work
T2 sequence (P25101 21-427): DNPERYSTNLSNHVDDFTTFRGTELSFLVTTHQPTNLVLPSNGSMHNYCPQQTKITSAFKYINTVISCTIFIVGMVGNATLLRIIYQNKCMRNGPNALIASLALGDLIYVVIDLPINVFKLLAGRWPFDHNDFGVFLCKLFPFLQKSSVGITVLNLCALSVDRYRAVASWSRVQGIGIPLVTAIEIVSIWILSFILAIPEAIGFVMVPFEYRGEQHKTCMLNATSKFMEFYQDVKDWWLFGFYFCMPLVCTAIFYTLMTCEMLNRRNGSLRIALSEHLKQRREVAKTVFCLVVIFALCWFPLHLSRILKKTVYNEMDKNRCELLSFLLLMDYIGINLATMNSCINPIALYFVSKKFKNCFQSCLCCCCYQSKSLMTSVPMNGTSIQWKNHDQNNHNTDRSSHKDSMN

[3] = target: T1, ETB receptors; details: cited from earlier work

For “analog of ET-1, Suc-Asp-Glu-Glu-Ala-Val-Tyr-Phe-Ala-His-Leu-Asp-Ile-Ile-Trp; potent and specific agonist for the ETB receptors (Suc-DEEAVYFAHLDIIW) [IRL-1620, N-Succinyl-[Glu^9, Ala^11,15] endothelin 1]”, the “selectivity for ETB over ETA receptors” value [1] is listed as “approximately 120,000 times”, the Ki [2] is listed as 1900 nM and the Ki [3] is listed as 0.016 nM.

Reference: US12629406B2, “Alterations in endothelin receptors following hemorrhage and resuscitation by centhaquin” (MIDWESTERN UNIVERSITY, priority 2018, dated 2026)
